Laboratory results published in patent US20110059889A1 (SYNTONIX PHARMACEUTICALS, published 2011).
Read-outs that look alike come from different tables or passages of the source. Bridge positions count the residues as written; N and C are the ends. Square brackets hold non-standard residues; d marks the D form. Ends that are not written are not given here. Phe(F5) = N[C@@H](Cc1c(F)c(F)c(F)c(F)c1F)C(=O)O; Phe(4-NH2) = Nc1ccc(C[C@H](N)C(=O)O)cc1; Phe(4-Me) = Cc1ccc(C[C@H](N)C(=O)O)cc1; NMeL = CN[C@@H](CC(C)C)C(=O)O; Pen = CC(C)(S)[C@H](N)C(=O)O; hCys = N[C@@H](CCS)C(=O)O; Sar = CNCC(=O)O

Columns and labels:
[1] = molecular target: T1, soluble human FcRn (shFcRn) (human, UniProt P55899 24-297; P61769 21-119); assay: SPR pH 7.4
T1 construct: Biotinylated for the ELISA, amine-coupled to a CM5 chip for SPR; also called biotinylated shFcRn
Protocol: (§1) The following steps were performed to cross-link soluble human or cynomolgus FcRn to the dextran surface of a CM5 sensor chip (Biacore AB, Uppsala, Sweden) by an amine coupling reaction involving 1-ethyl-(3-dimethylaminopropyl)-carbodiimide hydrochloride (EDC) (Biacore AB, Uppsala, Sweden) and N-hydroxysuccinimide (NHS) (Biacore AB, Uppsala, Sweden) as recommended by Biacore (BIAapplications Handbook, version AB, section 4.2, Biacore AB, Uppsala, Sweden). […] Residual sites on the FcRn flow cell were blocked with 1 M ethanolamine hydrochloride pH 8.5 (Biacore AB, Uppsala, Sweden). A control flow cell was blocked with ethanolamine for reference subtraction. For analysis of the monomeric peptides, FcRn was coated to a final density of 4000-5000 response units (RU). For analysis of the peptide dimers, FcRn was coated to a density of 2000-2500 RU. All SPR measurements were performed using a BIACORE 3000 Instrument (Biacore AB Uppsala, Sweden). For measurements done at either pH 6 or pH 7.4, experiments were performed in 50 mM phosphate, 100 mM sodium chloride, 0.01% surfactant P20 (Biacore AB, Uppsala, Sweden).
(§2) Ten, 2-fold dilutions of the peptide were injected over the FcRn-CM5 chip at a rate of 20 μl/min for 2 min. The peptide was dissociated from the chip for 2.5 minutes with buffer. Any remaining peptide was removed from the chip with a 30 second injection of HBS-P buffer (Biacore AB, Uppsala, Sweden) at a rate of 30 μl/min. Sensorgrams were generated and analyzed using BiaEval software version 3.1 (Biacore AB, Uppsala, Sweden). The equilibrium RU observed for each injection was plotted against concentration. The equilibrium KD values were derived by analysis of the plots using the steady state affinity model included in the BiaEval software.

[2] = molecular target: T1, soluble human FcRn (shFcRn); assay: IgG competition ELISA
[3] = molecular target: T1, soluble human FcRn (shFcRn); assay: SPR pH 6
Protocol: as §1, §2

[4] = molecular target: T1, soluble human FcRn (shFcRn); assay: SPR pH 6; remark: listed apart in the source
Protocol: as §1, §2

[5] = molecular target: T1, soluble human FcRn (shFcRn); assay: SPR pH 6; remark: listed apart in the source
Protocol: as §1, §2

[6] = molecular target: T1, soluble human FcRn (shFcRn); assay: IgG competition ELISA; remark: listed apart in the source
Protocol: (§3) The wells were coated with 100 μl/well of 1 μg/ml biotinylated-shFcRn in Buffer A. The plate was sealed and incubated at 37° C. for 2 hours. Afterwards, the plate was washed with 200 μl/well of Buffer B (Buffer B: 100 mM MES pH 6, 150 mM NaCl, 0.5% BSA IgG-free (Jackson ImmunoResearch, West Grove, Pa.), 0.05% Tween-20). […] To allow for mixing, the plate was rocked for 2 minutes, sealed and incubated at 37° C. for 2 hours. […] The plate was covered, incubated for 30 minutes at room temperature and washed 4 times with 200 μl/well of ice-cold buffer B. SureBlue TMB substrate solution (100 μl/well, KPL, Gaithersburg, Md.) was added and the plate was allowed to incubate at room temperature until color developed, which took 5 to 10 minutes. Once color developed, 100 μl/well of TMB stop solution (KPL, Gaithersburg, Md.) was added and the absorbance was measured at 450 nm. The data was plotted as absorbance vs. peptide concentration to derive the inhibitory concentration 50% (IC₅₀) values.

[7] = molecular target: T1, soluble human FcRn (shFcRn); assay: IgG competition ELISA; remark: listed apart in the source
Protocol: as §3

T1 sequence (P55899 24-297 limits assumed, chain 1 of 2): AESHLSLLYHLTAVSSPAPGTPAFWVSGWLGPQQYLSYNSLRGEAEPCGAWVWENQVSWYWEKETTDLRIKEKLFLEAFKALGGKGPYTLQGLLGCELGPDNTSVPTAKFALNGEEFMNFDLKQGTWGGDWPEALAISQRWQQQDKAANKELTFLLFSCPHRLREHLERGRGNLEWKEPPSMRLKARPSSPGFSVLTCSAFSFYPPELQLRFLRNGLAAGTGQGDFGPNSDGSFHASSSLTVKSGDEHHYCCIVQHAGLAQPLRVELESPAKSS
T1 sequence (P61769 21-119 limits assumed, chain 2 of 2): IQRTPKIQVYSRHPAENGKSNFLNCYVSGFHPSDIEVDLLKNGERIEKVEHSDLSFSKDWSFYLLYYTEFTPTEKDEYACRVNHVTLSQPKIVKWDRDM

Binder | Kd [1] [µM] | Kd [3] [µM] | Kd [5] [µM] | further results
QRF[Pen]TGHFG[dP]LYPCNGP-NH2 (disulfide 4-14; N-terminus assumed; SMILES CC(C)C[C@@H]1NC(=O)[C@H]2CCCN2C(=O)CNC(=O)[C@H](Cc2ccccc2)NC(=O)[C@H](Cc2c[nH]cn2)NC(=O)CNC(=O)[C@H]([C@@H](C)O)NC(=O)[C@@H](NC(=O)[C@H](Cc2ccccc2)NC(=O)[C@H](CCCNC(=N)N)NC(=O)[C@@H](N)CCC(N)=O)C(C)(C)SSC[C@@H](C(=O)N[C@@H](CC(N)=O)C(=O)NCC(=O)N2CCC[C@H]2C(N)=O)NC(=O)[C@@H]2CCCN2C(=O)[C@H](Cc2ccc(O)cc2)NC1=O) [Peptide No. 40] | 1.1 | – | – | IC50 [2]: 1.4 µM
QRF[Pen]TGHFG[dR]LYPCNGP-NH2 (disulfide 4-14; N-terminus assumed; SMILES CC(C)C[C@@H]1NC(=O)[C@@H](CCCNC(=N)N)NC(=O)CNC(=O)[C@H](Cc2ccccc2)NC(=O)[C@H](Cc2c[nH]cn2)NC(=O)CNC(=O)[C@H]([C@@H](C)O)NC(=O)[C@@H](NC(=O)[C@H](Cc2ccccc2)NC(=O)[C@H](CCCNC(=N)N)NC(=O)[C@@H](N)CCC(N)=O)C(C)(C)SSC[C@@H](C(=O)N[C@@H](CC(N)=O)C(=O)NCC(=O)N2CCC[C@H]2C(N)=O)NC(=O)[C@@H]2CCCN2C(=O)[C@H](Cc2ccc(O)cc2)NC1=O) [Peptide No. 41] | 8.8 | 0.83 | – | IC50 [2]: 8.1 µM
QRF[Pen]TGHFG[dH]LYPCNGP-NH2 (disulfide 4-14; N-terminus assumed; SMILES CC(C)C[C@@H]1NC(=O)[C@@H](Cc2c[nH]cn2)NC(=O)CNC(=O)[C@H](Cc2ccccc2)NC(=O)[C@H](Cc2c[nH]cn2)NC(=O)CNC(=O)[C@H]([C@@H](C)O)NC(=O)[C@@H](NC(=O)[C@H](Cc2ccccc2)NC(=O)[C@H](CCCNC(=N)N)NC(=O)[C@@H](N)CCC(N)=O)C(C)(C)SSC[C@@H](C(=O)N[C@@H](CC(N)=O)C(=O)NCC(=O)N2CCC[C@H]2C(N)=O)NC(=O)[C@@H]2CCCN2C(=O)[C@H](Cc2ccc(O)cc2)NC1=O) [Peptide No. 42] | 20 | 2 | – | –
QRF[Pen]TGHFG[dI]LYPCNGP-NH2 (disulfide 4-14; N-terminus assumed; SMILES CC[C@@H](C)[C@H]1NC(=O)CNC(=O)[C@H](Cc2ccccc2)NC(=O)[C@H](Cc2c[nH]cn2)NC(=O)CNC(=O)[C@H]([C@@H](C)O)NC(=O)[C@@H](NC(=O)[C@H](Cc2ccccc2)NC(=O)[C@H](CCCNC(=N)N)NC(=O)[C@@H](N)CCC(N)=O)C(C)(C)SSC[C@@H](C(=O)N[C@@H](CC(N)=O)C(=O)NCC(=O)N2CCC[C@H]2C(N)=O)NC(=O)[C@@H]2CCCN2C(=O)[C@H](Cc2ccc(O)cc2)NC(=O)[C@H](CC(C)C)NC1=O) [Peptide No. 43] | 41 | – | – | IC50 [2]: 18 µM
QRF[Pen]TGHFG[dF]LYPCNGP-NH2 (disulfide 4-14; N-terminus assumed; SMILES CC(C)C[C@@H]1NC(=O)[C@@H](Cc2ccccc2)NC(=O)CNC(=O)[C@H](Cc2ccccc2)NC(=O)[C@H](Cc2c[nH]cn2)NC(=O)CNC(=O)[C@H]([C@@H](C)O)NC(=O)[C@@H](NC(=O)[C@H](Cc2ccccc2)NC(=O)[C@H](CCCNC(=N)N)NC(=O)[C@@H](N)CCC(N)=O)C(C)(C)SSC[C@@H](C(=O)N[C@@H](CC(N)=O)C(=O)NCC(=O)N2CCC[C@H]2C(N)=O)NC(=O)[C@@H]2CCCN2C(=O)[C@H](Cc2ccc(O)cc2)NC1=O) [Peptide No. 44] | 100 | 1.7 | – | –
QRF[Pen]TGHF[dD]GLYPCNGP-NH2 (disulfide 4-14; N-terminus assumed; SMILES CC(C)C[C@@H]1NC(=O)CNC(=O)[C@@H](CC(=O)O)NC(=O)[C@H](Cc2ccccc2)NC(=O)[C@H](Cc2c[nH]cn2)NC(=O)CNC(=O)[C@H]([C@@H](C)O)NC(=O)[C@@H](NC(=O)[C@H](Cc2ccccc2)NC(=O)[C@H](CCCNC(=N)N)NC(=O)[C@@H](N)CCC(N)=O)C(C)(C)SSC[C@@H](C(=O)N[C@@H](CC(N)=O)C(=O)NCC(=O)N2CCC[C@H]2C(N)=O)NC(=O)[C@@H]2CCCN2C(=O)[C@H](Cc2ccc(O)cc2)NC1=O) [Peptide No. 47] | 4.9 | 0.58 | – | –
RF[Pen]TGHF[dF][Sar][NMeL]YPC-NH2 (disulfide 3-13; N-terminus assumed; SMILES CC(C)C[C@H]1C(=O)N[C@@H](Cc2ccc(O)cc2)C(=O)N2CCC[C@H]2C(=O)N[C@H](C(N)=O)CSSC(C)(C)[C@H](NC(=O)[C@H](Cc2ccccc2)NC(=O)[C@@H](N)CCCNC(=N)N)C(=O)N[C@@H]([C@@H](C)O)C(=O)NCC(=O)N[C@@H](Cc2c[nH]cn2)C(=O)N[C@@H](Cc2ccccc2)C(=O)N[C@H](Cc2ccccc2)C(=O)N(C)CC(=O)N1C) [Peptide No. 217] | – | – | – | Kd [4]: 1.4 µM
QRFCTGHFGXLYPCNGP (Pen 4; Aib (aminoisobutyric acid) 10; disulfide 4-14; C-terminal amide) [Peptide No. 46] | 5.3 | 0.48 | – | IC50 [2]: 2.4 µM
QRF[Pen]TGH[Phe(4-NH2)]GGLYPCNGP-NH2 (disulfide 4-14; N-terminus assumed; SMILES CC(C)C[C@@H]1NC(=O)CNC(=O)CNC(=O)[C@H](Cc2ccc(N)cc2)NC(=O)[C@H](Cc2c[nH]cn2)NC(=O)CNC(=O)[C@H]([C@@H](C)O)NC(=O)[C@@H](NC(=O)[C@H](Cc2ccccc2)NC(=O)[C@H](CCCNC(=N)N)NC(=O)[C@@H](N)CCC(N)=O)C(C)(C)SSC[C@@H](C(=O)N[C@@H](CC(N)=O)C(=O)NCC(=O)N2CCC[C@H]2C(N)=O)NC(=O)[C@@H]2CCCN2C(=O)[C@H](Cc2ccc(O)cc2)NC1=O) [Peptide No. 55] | – | – | 1 | –
QRF[Pen]TGH[Phe(F5)]GGLYPCNGP-NH2 (disulfide 4-14; N-terminus assumed; SMILES CC(C)C[C@@H]1NC(=O)CNC(=O)CNC(=O)[C@H](Cc2c(F)c(F)c(F)c(F)c2F)NC(=O)[C@H](Cc2c[nH]cn2)NC(=O)CNC(=O)[C@H]([C@@H](C)O)NC(=O)[C@@H](NC(=O)[C@H](Cc2ccccc2)NC(=O)[C@H](CCCNC(=N)N)NC(=O)[C@@H](N)CCC(N)=O)C(C)(C)SSC[C@@H](C(=O)N[C@@H](CC(N)=O)C(=O)NCC(=O)N2CCC[C@H]2C(N)=O)NC(=O)[C@@H]2CCCN2C(=O)[C@H](Cc2ccc(O)cc2)NC1=O) [Peptide No. 57] | – | – | 70 | –
QRFCTGHXGGLYPCNGP (Pen 4; 3-PyridylAla 8; disulfide 4-14; C-terminal amide) [Peptide No. 59] | – | – | 19 | IC50 [6]: 60 µM
QRFCTGHXGGLYPCNGP (Pen 4; 2-napthylalanine 8; disulfide 4-14; C-terminal amide) [Peptide No. 62] | – | – | 11 | IC50 [6]: 90 µM
QRF[Pen]TGH[Phe(4-Me)]GGLYPCNGP-NH2 (disulfide 4-14; N-terminus assumed; SMILES Cc1ccc(C[C@@H]2NC(=O)[C@H](Cc3c[nH]cn3)NC(=O)CNC(=O)[C@H]([C@@H](C)O)NC(=O)[C@@H](NC(=O)[C@H](Cc3ccccc3)NC(=O)[C@H](CCCNC(=N)N)NC(=O)[C@@H](N)CCC(N)=O)C(C)(C)SSC[C@@H](C(=O)N[C@@H](CC(N)=O)C(=O)NCC(=O)N3CCC[C@H]3C(N)=O)NC(=O)[C@@H]3CCCN3C(=O)[C@H](Cc3ccc(O)cc3)NC(=O)[C@H](CC(C)C)NC(=O)CNC(=O)CNC2=O)cc1) [Peptide No. 90] | – | – | 0.2 | –
QRFCTGHFGGLYP[Pen]NGP-NH2 (disulfide 4-14; N-terminus assumed; SMILES CC(C)C[C@@H]1NC(=O)CNC(=O)CNC(=O)[C@H](Cc2ccccc2)NC(=O)[C@H](Cc2c[nH]cn2)NC(=O)CNC(=O)[C@H]([C@@H](C)O)NC(=O)[C@@H](NC(=O)[C@H](Cc2ccccc2)NC(=O)[C@H](CCCNC(=N)N)NC(=O)[C@@H](N)CCC(N)=O)CSSC(C)(C)[C@@H](C(=O)N[C@@H](CC(N)=O)C(=O)NCC(=O)N2CCC[C@H]2C(N)=O)NC(=O)[C@@H]2CCCN2C(=O)[C@H](Cc2ccc(O)cc2)NC1=O) [Peptide No. 33] | – | – | – | IC50 [7]: 18 µM
QRF[Pen]TGHFGGLYP[hCys]NGP-NH2 (disulfide 4-14; N-terminus assumed; SMILES CC(C)C[C@@H]1NC(=O)CNC(=O)CNC(=O)[C@H](Cc2ccccc2)NC(=O)[C@H](Cc2c[nH]cn2)NC(=O)CNC(=O)[C@H]([C@@H](C)O)NC(=O)[C@@H](NC(=O)[C@H](Cc2ccccc2)NC(=O)[C@H](CCCNC(=N)N)NC(=O)[C@@H](N)CCC(N)=O)C(C)(C)SSCC[C@@H](C(=O)N[C@@H](CC(N)=O)C(=O)NCC(=O)N2CCC[C@H]2C(N)=O)NC(=O)[C@@H]2CCCN2C(=O)[C@H](Cc2ccc(O)cc2)NC1=O) [Peptide No. 69] | – | – | – | IC50 [7]: 2 µM
